Laboratory results from patent US20040053370A1 (Eli Lilly, published 2004).
Ends that are not written are not given here.

These binders were tested against GLP-1 receptor (assay: cell-based or functional assay).

In order of rising “GLP-1 Receptor Activation” value:
1. HVEGTFTSDVSSFLEEQAAKEFIAWLVKGRG [Val^8-Phe^19-Glu^22-GLP-1(7-37)OH]  0.7 fold of GLP-1(7-37)OH
2. HVEGTYTSDVSSYLEGQAAKEFIAWLVKGRG [Val^8-Tyr^12-GLP-1(7-37)OH]  0.8 fold of GLP-1(7-37)OH
3. HVEGTFTSDVSFYLEEQAAKEFIAWLVKGRG [Val^8-Phe^18-Glu^22-GLP-1(7-37)OH]  0.94 fold of GLP-1(7-37)OH
4. HVEGTFTSDFSSYLEEQAAKEFIAWLVKGRG [Val^8-Phe^16-Glu^22-GLP-1(7-37)OH]  1.08 fold of GLP-1(7-37)OH
5. HVEGTFTSDYSSYLEGQAAKEFIAWLVKGRG [Val^8-Tyr^16-GLP-1(7-37)OH]  1.18 fold of GLP-1(7-37)OH
6. HVEGTFTSDVSKYLEEQAAKEFIAWLVKGRG [Val^8-Lys^18-Glu^22-GLP-1(7-37)OH]  1.18 fold of GLP-1(7-37)OH
7. HVEGTFTSDYSSFLEGQAAKEFIAWLVKGRG [Val^8-Tyr^16-Phe^19-GLP-1(7-37)OH]  1.32 fold of GLP-1(7-37)OH
8. HVEGTFTSDVSSWLEEQAAKEFIAWLVKGRG [Val^8-Trp^19-Glu^22-GLP-1(7-37)OH]  1.5 fold of GLP-1(7-37)OH
9. HVEGTFTSDISSYLEEQAAKEFIAWLVKGRG [Val^8-Ile^16-Glu^22-GLP-1(7-37)OH]  1.55 fold of GLP-1(7-37)OH
10. HVEGTFTSDVSIYLEEQAAKEFIAWLVKGRG [Val^8-Ile^18-Glu^22-GLP-1(7-37)OH]  1.88 fold of GLP-1(7-37)OH
11. HVEGTFTSDLSSYLEEQAAKEFIAWLVKGRG [Val^8-Leu^16-Glu^22-GLP-1(7-37)OH]  2.02 fold of GLP-1(7-37)OH

Target: GLP-1 receptor
Test: cell-based or functional assay
Remark: another data set of the same source

In order of rising “GLP-1 Receptor Activation” value:
1. HVEGTYTSDVSSYLEGQAAKEFIAWLVKGRG [Val^8-Tyr^12-GLP-1(7-37)OH]  0.81 fold of GLP-1(7-37)OH
2. HVEGTFTSDYSSYLEGQAAKEFIAWLVKGRG [Val^8-Tyr^16-GLP-1(7-37)OH]  1.18 fold of GLP-1(7-37)OH

Target: GLP-1 receptor
Test: cell-based or functional assay
Remark: another data set of the same source

In order of falling “In Vitro Activity (% of Val^8-GLP-1(7-37)OH)” value:
1. HGEGTFTSDVSSYLEEEAVRLFIEWLKNGGP-NH2 [HGEGTFTSDVSSYLEEEAVRLFIEWLKNGGP-NH2]  5.4 % of Val^8-GLP-1(7-37)OH
2. HGEGTFTSDLSSYLEEEAVRLFIEWLKNGGP-NH2 [HGEGTFTSDLSSYLEEEAVRLFIEWLKNGGP-NH2]  5.07 % of Val^8-GLP-1(7-37)OH
3. HAEGTFTSDVSSYLEGQAAKEFIAWLVKGRPSSGAPPPS-NH2 [HAEGTFTSDVSSYLEGQAAKEFIAWLVKGRPSSGAPPPS-NH2]  3.3 % of Val^8-GLP-1(7-37)OH
4. HGEGTFTSDLSKQMEEEAVRLFIAWLVKGRG  3.25 % of Val^8-GLP-1(7-37)OH
5. HVEGTFTSDLSKQMEEEAVRLFIAWLVKGRG  2.86 % of Val^8-GLP-1(7-37)OH
6. HGEGTFTSDLSKQMEEEAAKEFIEWLKNGGP-NH2 [HGEGTFTSDLSKQMEEEAAKEFIEWLKNGGP-NH2]  2.8 % of Val^8-GLP-1(7-37)OH
7. HVEGTFTSDVSSYLEGQAAKEFIEWLKNGGP-NH2 [HVEGTFTSDVSSYLEGQAAKEFIEWLKNGGP-NH2]  2.36 % of Val^8-GLP-1(7-37)OH
8. HAEGTFTSDVSKQLEEEAAKEFIAWLVKGRG  2.15 % of Val^8-GLP-1(7-37)OH
9. HVEGTFTSDVSSYLEEEAVRLFIAWLVKGRG  1.47 % of Val^8-GLP-1(7-37)OH
10. HGEGTFTSDLSKQMEGQAAKEFIEWLKNGGP-NH2 [HGEGTFTSDLSKQMEGQAAKEFIEWLKNGGP-NH2]  1.44 % of Val^8-GLP-1(7-37)OH
11. HVEGTFTSDVSSYLEGQAAKEFIAWLVKGRG [Val^8-GLP-1(7-37)OH]  1 % of Val^8-GLP-1(7-37)OH
12. HVEGTFTSDLSKQMEGQAAKEFIAWLVKGRG  0.11 % of Val^8-GLP-1(7-37)OH
